Legend:
[1] = biological target: 6x-histidine-fused LOS4 (LOS4-His) (Arabidopsis) (UniProt Q93ZG7)
[2] = biological target: 6x-histidine-fused LOS4 (LOS4-His) (Arabidopsis) (UniProt Q93ZG7); remark: listed apart in the source
LOS4 ATPase = assay: Steady-state ATPase assay of LOS4-His; type: biochemical, Arabidopsis thaliana; conditions: for stimulation of LOS4 ATPase activity in the absence of InsP6: 1 μM LOS4-His, 2 mM ATP, 2 μM MBP-Gle1C or variant
Method: A steady-state ATPase assay was performed as described by Alcázar-Román et al. (Inositol hexakisphosphate and Gle1 activate the DEAD-box protein Dbp5 for nuclear mRNA export. Nat. Cell Biol. 8: 711-716, 2006) with slight modifications. The ATPase assay was performed with a LOS4-His protein in a 96-well plate using a buffer containing 20 mM HEPES (pH 7.5), 150 mM NaCl, 3 mM MgCl2, 1 mM DTT, 2 mM ATP, 6 mM phosphoenolpyruvate, 1.2 mM NADH, 1 mg/ml BSA and 2% (v/v) pyruvate kinase/lactate dihydrogenase (Sigma-Aldrich) in a total volume of 100 μl. Polyadenylic acid was added at 50 μg/ml or different concentrations as described above. Absorbance at 340 nm was measured using a VersaMax absorbance microplate reader (Molecular Devices), and the data were analyzed using SoftMax Pro software (Molecular Devices).
Gle1 and Gle1C (aa residues 244-611) were cloned into a pMAL C2X vector (New England Biolabs) for MBP fusion, LOS4 was cloned into a pET-29a vector for His fusion. MBP-Gle1 and MBP-Gle1C proteins were expressed in a BL21 (DE3) strain, and LOS4-His proteins were expressed in a Rosseta (DE3) strain of Escherichia coli. Cells were grown at 37° C. to an A600 of 0.4, shifted to 16° C., and induced by 0.25 mM IPTG for 16 hours. The MBP- and His-fusion proteins were purified following the manufacturer's introductions using MBP Excellose (Bioprogen) and His60 Ni Superflow™ resin (Clontech), respectively.

LOS4-His = biological target: T1, LOS4-His (Arabidopsis thaliana, UniProt Q93ZG7); assay: In vitro pull-down assay; type: binding; conditions: Coomassie blue staining of eluted proteins
T1 construct: LOS4 was cloned into a pET-29a vector for His fusion; made in house; host or cells: Escherichia coli Rosetta (DE3) for LOS4-His; BL21 (DE3) for MBP-Gle1
T1 sequence (Q93ZG7 1-496): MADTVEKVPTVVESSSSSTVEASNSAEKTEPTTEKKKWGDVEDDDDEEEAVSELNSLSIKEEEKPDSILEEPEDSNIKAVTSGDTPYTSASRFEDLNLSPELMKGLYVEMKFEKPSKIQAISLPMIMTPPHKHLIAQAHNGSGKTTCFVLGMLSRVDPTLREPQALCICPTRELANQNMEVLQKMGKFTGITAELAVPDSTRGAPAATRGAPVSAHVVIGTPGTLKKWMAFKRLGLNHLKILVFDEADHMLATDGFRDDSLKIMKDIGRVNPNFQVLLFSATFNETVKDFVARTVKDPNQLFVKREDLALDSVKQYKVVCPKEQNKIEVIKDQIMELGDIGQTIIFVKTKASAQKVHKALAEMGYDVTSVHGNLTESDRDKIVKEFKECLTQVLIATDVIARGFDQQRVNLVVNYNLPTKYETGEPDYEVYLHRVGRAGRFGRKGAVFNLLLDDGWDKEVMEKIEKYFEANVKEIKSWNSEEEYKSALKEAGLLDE
Method: MBP and MBP-Gle1 proteins immobilized on MBP Excellose (Bioprogen) were incubated with LOS4-His proteins for 2 hours at room temperature. Similarly, LOS4-His proteins immobilized on a His60 Ni Superflow™ resin (Clontech) were incubated with MBP or MBP-Gle1 for 2 hours at room temperature. After extensive washing of the resins, the bound proteins were eluted with 2× SDS sample buffer, and the eluted proteins were visualized by Coomassie blue staining.

[3] = biological target: T2, LOS4 RNA helicase activity (Arabidopsis thaliana, UniProt Q93ZG7); assay: In vitro nucleic acid-melting assay with hairpin-shaped molecular beacons; type: biochemical; conditions: in the presence of ATP; LOS4-His:MBP-Gle1 1:1, 1:2, 1:4 or LOS4-His only
T2 construct: LOS4 was cloned into a pET-29a vector for His fusion; made in house; host or cells: Escherichia coli Rosetta (DE3) for LOS4-His; BL21 (DE3) for MBP-Gle1
T2 sequence (Q93ZG7 1-496): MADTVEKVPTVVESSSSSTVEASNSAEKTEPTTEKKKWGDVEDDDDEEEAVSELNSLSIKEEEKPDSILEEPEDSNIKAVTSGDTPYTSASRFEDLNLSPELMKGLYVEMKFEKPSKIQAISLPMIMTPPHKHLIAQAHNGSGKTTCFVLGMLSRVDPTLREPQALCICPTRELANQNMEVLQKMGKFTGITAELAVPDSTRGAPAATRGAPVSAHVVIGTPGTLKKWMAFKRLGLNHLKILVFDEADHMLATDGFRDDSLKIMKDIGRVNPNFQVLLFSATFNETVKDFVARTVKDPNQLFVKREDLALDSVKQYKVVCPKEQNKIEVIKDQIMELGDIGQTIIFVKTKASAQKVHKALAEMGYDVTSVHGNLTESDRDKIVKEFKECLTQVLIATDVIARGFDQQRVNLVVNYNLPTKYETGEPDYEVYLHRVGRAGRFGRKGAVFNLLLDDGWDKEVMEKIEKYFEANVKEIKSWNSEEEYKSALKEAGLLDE
Method: A nucleic acid-melting assay was performed as described by Kim et al. (Cold shock domain proteins and glycine-rich RNA-binding proteins from Arabidopsis thaliana can promote the cold adaptation process in Escherichia coli. Nucleic Acids Res. 35: 506-516, 2007) using 78-nucleotide-long, 9-bp-containing, hairpin-shaped molecular beacons conjugated with a fluorophore (tetramethylrhodamine) and a quencher (Dabcyl). Spectrofluorometry was performed using a fluorescence spectrophotometer (Hitachi F-2000) at an excitation wavelength of 555 nm and an emission wavelength of 575 nm.

MBP-Gle1C (ID)
LOS4 ATPase activity in the absence of InsP6 (fold decrease) [1]: 2

MBP fusion protein of the carboxyl-terminal domain of Gle1 (MBP-Gle1C; amino acid residues 244-611)
apparent kcat of LOS4-His ATPase [2]: 0.565 s⁻¹

O=S(=O)(O)OC1C(OS(=O)(=O)O)C(OS(=O)(=O)O)C(OS(=O)(=O)O)C(OS(=O)(=O)O)C1OS(=O)(=O)O (centres unmarked) [InsP6 analog, reference compound]
further stimulation of LOS4 ATPase activity (LOS4 ATPase; LOS4-His 1 μM, ATP 2 mM, RNA, MBP-Gle1 2 μM plus 10 μM InsP6 analog): did not do so

polyadenylic acid [RNA, reference compound]
LOS4 ATPase activity (LOS4 ATPase; LOS4-His 1 μM, ATP 2 mM, RNA 50 μg/ml only): moderately stimulated LOS4 ATPase activity

B1: MBP-Gle1: maltose-binding protein (MBP)-fused full-length Arabidopsis Gle1 (protein)
chain: MGIVLEPPCPKSVDGISIDPEPNWNFESLVAEIASVEKKLNGFSMYPQPITNTTLRMGRRGGGFVMHVSEDEMESDEGEESDDEEEEEDHSQICTAGKRFACDELYLSDESDEEFDHEPEYMMNKLGLAESALYEVINDHQTEIKDDIRNQVSVVETEIMNEIETSLSAIARVEKYSETRKEVERKLDLQYQRKVAEALDTHLTAVQREHKIKSQIEERKIRSEEAQEEARRKERAHQEEKIRQEKARAEAQMLAKIRAEEEKKEVERKAAREVAEKEVADRKAAEQKLAEQKAVIESVTGSSATSNAQAGGNSIRAAESALILENHRLKKLEELETTNQSLKSRSNENFSSFEKHIGRVIRQISGTKDSVSGKINDIVKIFKDPRCPVSISIAAFAKKMVTTKEKPNPFACSYVIVYINSQFPQVMDILLAEFHKACIYTVPKHIVNSQSAWDSDAYERLDSIMRLYGALVQTDIRVGNATNVHGIEHGWAWLARFLNKIPANRATATALNSFLQTAGFGLHQRYKSQFLKVVNVVREHFLQKLRAKKDTSDLLVIIAEITAYLDDRMYLKEPEGRAMKTTSTLSSELTAELNQPNYNQNYQRNDYRNYY
pull-down by nickel resin-bound LOS4-His (LOS4-His): could pull down MBP-Gle1
beacon fluorescence (LOS4 RNA helicase activity) [3]: significant increase in fluorescence in a concentration-dependent manner
induction of LOS4 ATPase activity (LOS4 ATPase; LOS4-His 1 μM, ATP 2 mM, RNA 50 μg/ml and MBP-Gle1 (full length) 2 μM): threefold

B2: LOS4-His: 6×-histidine-fused LOS4, Arabidopsis DEAD-box ATPase/RNA helicase, homolog of yeast Dbp5 (protein)
chain: MADTVEKVPTVVESSSSSTVEASNSAEKTEPTTEKKKWGDVEDDDDEEEAVSELNSLSIKEEEKPDSILEEPEDSNIKAVTSGDTPYTSASRFEDLNLSPELMKGLYVEMKFEKPSKIQAISLPMIMTPPHKHLIAQAHNGSGKTTCFVLGMLSRVDPTLREPQALCICPTRELANQNMEVLQKMGKFTGITAELAVPDSTRGAPAATRGAPVSAHVVIGTPGTLKKWMAFKRLGLNHLKILVFDEADHMLATDGFRDDSLKIMKDIGRVNPNFQVLLFSATFNETVKDFVARTVKDPNQLFVKREDLALDSVKQYKVVCPKEQNKIEVIKDQIMELGDIGQTIIFVKTKASAQKVHKALAEMGYDVTSVHGNLTESDRDKIVKEFKECLTQVLIATDVIARGFDQQRVNLVVNYNLPTKYETGEPDYEVYLHRVGRAGRFGRKGAVFNLLLDDGWDKEVMEKIEKYFEANVKEIKSWNSEEEYKSALKEAGLLDE
beacon fluorescence (LOS4 RNA helicase activity) [3]: did not increase the fluorescence of the beacons
apparent kcat of LOS4-His (LOS4 ATPase; LOS4-His (1 μM) alone, 0-2 mM ATP): 0.267 s⁻¹

B3: MBP-Gle1C (IS1): MBP fusion of Arabidopsis Gle1C variant InsP6-Sensitive 1: mutation from A437 to K (protein)
chain: QEKARAEAQMLAKIRAEEEKKEVERKAAREVAEKEVADRKAAEQKLAEQKAVIESVTGSSATSNAQAGGNSIRAAESALILENHRLKKLEELETTNQSLKSRSNENFSSFEKHIGRVIRQISGTKDSVSGKINDIVKIFKDPRCPVSISIAAFAKKMVTTKEKPNPFACSYVIVYINSQFPQVMDILLAEFHKKCIYTVPKHIVNSQSAWDSDAYERLDSIMRLYGALVQTDIRVGNATNVHGIEHGWAWLARFLNKIPANRATATALNSFLQTAGFGLHQRYKSQFLKVVNVVREHFLQKLRAKKDTSDLLVIIAEITAYLDDRMYLKEPEGRAMKTTSTLSSELTAELNQPNYNQNYQRNDYRNYY
stimulation of LOS4 ATPase activity in the absence of InsP6 (LOS4 ATPase; RNA, no InsP6): activated LOS4 ATPase activity to similar degrees
InsP6 concentration at which LOS4-stimulating activity increases above basal (LOS4 ATPase; with RNA, InsP6 0-100 μM): 100 nM
InsP6 concentration giving maximum LOS4-stimulating activity (LOS4 ATPase; with RNA, InsP6 0-100 μM): ~1 µM

B4: MBP-Gle1C (IS2): MBP fusion of Arabidopsis Gle1C variant InsP6-Sensitive 2: double mutations from E433 to K and from A437 to K (protein)
chain: QEKARAEAQMLAKIRAEEEKKEVERKAAREVAEKEVADRKAAEQKLAEQKAVIESVTGSSATSNAQAGGNSIRAAESALILENHRLKKLEELETTNQSLKSRSNENFSSFEKHIGRVIRQISGTKDSVSGKINDIVKIFKDPRCPVSISIAAFAKKMVTTKEKPNPFACSYVIVYINSQFPQVMDILLAKFHKKCIYTVPKHIVNSQSAWDSDAYERLDSIMRLYGALVQTDIRVGNATNVHGIEHGWAWLARFLNKIPANRATATALNSFLQTAGFGLHQRYKSQFLKVVNVVREHFLQKLRAKKDTSDLLVIIAEITAYLDDRMYLKEPEGRAMKTTSTLSSELTAELNQPNYNQNYQRNDYRNYY
stimulation of LOS4 ATPase activity in the absence of InsP6 (LOS4 ATPase; RNA, no InsP6): reduced abilities to stimulate LOS4
InsP6 concentration at which LOS4-stimulating activity increases above basal (LOS4 ATPase; with RNA, InsP6 0-100 μM): 1 nM
InsP6 concentration giving full stimulation of LOS4 ATPase activity (LOS4 ATPase; with RNA, InsP6 0-100 μM): 100 nM

B5: MBP-Gle1C (ID): MBP fusion of Arabidopsis Gle1C variant InsP6-Dead: mutation from K436 to A (protein)
chain: QEKARAEAQMLAKIRAEEEKKEVERKAAREVAEKEVADRKAAEQKLAEQKAVIESVTGSSATSNAQAGGNSIRAAESALILENHRLKKLEELETTNQSLKSRSNENFSSFEKHIGRVIRQISGTKDSVSGKINDIVKIFKDPRCPVSISIAAFAKKMVTTKEKPNPFACSYVIVYINSQFPQVMDILLAEFHAACIYTVPKHIVNSQSAWDSDAYERLDSIMRLYGALVQTDIRVGNATNVHGIEHGWAWLARFLNKIPANRATATALNSFLQTAGFGLHQRYKSQFLKVVNVVREHFLQKLRAKKDTSDLLVIIAEITAYLDDRMYLKEPEGRAMKTTSTLSSELTAELNQPNYNQNYQRNDYRNYY
stimulation of LOS4 ATPase activity in the absence of InsP6 (LOS4 ATPase; RNA, no InsP6): reduced abilities to stimulate LOS4
decrease in LOS4-stimulating activity in the absence of InsP6 (LOS4 ATPase; K436A mutation vs MBP-Gle1C, no InsP6): > 2 fold

From patent publication US10793871B2, “Nucleic acid molecule encoding glei protein variant with increased phytic acid sensitivity and use thereof” (University-Industry Foundation, Yonsei University, priority 2015, dated 2020)
